The values that follow come from publication PMC7031342, “REEP5 depletion causes sarco-endoplasmic reticulum vacuolization and cardiac functional defects” (Nature Communications, 2020).

As usually defined, the stoichiometry N is the number of molecules, sites or subunits per partner or assembly.

Data set [1] deals with the molecule itself. The data set is described as follows: immunoblot of oligomer bands after SDS-PAGE; lysates and nickel-His eluate of transfected HEK293 cells; increasing DTT lowered the dimer band.
Data set [2] deals with the molecule itself. The data set is described as follows: immunoblot of oligomer bands after SDS-PAGE; C2C12 myoblasts transfected with EYFP tagged REEP5 and truncation mutants; SDS-resistant dimers.

B1: CnVA-tagged (StrepII-6xHis, 3xFlag) REEP5 (natural protein)
chain: not shown
notes: Receptor expression-enhancing protein 5 (REEP5), human, subcloned from NM_005669.4 into pLD-puro-CnVA; also called CnVA-REEP5; source: HEK293, transfected, in lysate; nickel-His purification
As to B1, the “stoichiometry N” value in data set [1] was determined as 2.

B2: endogenous REEP5 (HEK293) (natural protein)
chain: not shown
notes: Receptor expression-enhancing protein 5 (REEP5), endogenous in HEK293 cells; source: endogenous, HEK293 lysate
Turning to B2, in data set [1], the “stoichiometry N” value turned out to be 2.

B3: Δ1–36 REEP5-EYFP (domain or fragment)
chain: not shown
notes: REEP5, human (NM_005669.4), lacking residues 1-36; source: C2C12 myoblasts, transfected, in lysate
As to B3, the “stoichiometry N” value in data set [2] worked out at 2.

B4: REEP5-V5-6xHis (natural protein)
chain: not shown
notes: REEP5 was fused to a V5 tag followed by a 6xHis tag; source: HEK293, transfected, in lysate
Turning to B4, in data set [1], the “stoichiometry N” value was 2.

B5: REEP5-EYFP (natural protein)
chain: not shown
notes: Receptor expression-enhancing protein 5 (REEP5), human (NM_005669.4), parent of the EYFP tagged truncation mutants; source: C2C12 myoblasts, transfected, in lysate
Consider B5, for which the “stoichiometry N” value in data set [2] is 2.
